Test results: patent US20060246071A1 (AstraZeneca / MedImmune, published 2006)
Positions count from the first letter of the chain named.

T1: recombinant human Angiopoietin-2 (human, UniProt O15123 19-496)
T1 construct: also called Ang-2; rhAng-2
T1 sequence: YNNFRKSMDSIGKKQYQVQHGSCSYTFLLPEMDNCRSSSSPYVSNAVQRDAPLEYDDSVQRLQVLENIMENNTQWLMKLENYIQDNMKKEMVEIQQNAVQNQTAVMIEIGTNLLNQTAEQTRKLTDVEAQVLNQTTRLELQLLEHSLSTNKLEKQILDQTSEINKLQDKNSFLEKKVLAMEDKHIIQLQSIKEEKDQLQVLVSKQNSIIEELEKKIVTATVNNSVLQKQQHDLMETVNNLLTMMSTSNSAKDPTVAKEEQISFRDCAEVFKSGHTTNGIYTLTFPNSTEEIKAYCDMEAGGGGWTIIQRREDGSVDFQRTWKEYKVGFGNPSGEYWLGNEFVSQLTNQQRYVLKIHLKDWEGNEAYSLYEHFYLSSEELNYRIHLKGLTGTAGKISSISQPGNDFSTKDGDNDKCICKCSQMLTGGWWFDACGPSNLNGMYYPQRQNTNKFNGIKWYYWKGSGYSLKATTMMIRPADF

T2: mouse Angiopoietin-2 (mouse, UniProt O35608 19-496)
T2 construct: Secreted into the supernatant of HEK293F/293T cells transfected with the full-length open reading frame of 496 amino acids (GenBank BC027216); also called mAng-2; mouse Ang-2
T2 sequence: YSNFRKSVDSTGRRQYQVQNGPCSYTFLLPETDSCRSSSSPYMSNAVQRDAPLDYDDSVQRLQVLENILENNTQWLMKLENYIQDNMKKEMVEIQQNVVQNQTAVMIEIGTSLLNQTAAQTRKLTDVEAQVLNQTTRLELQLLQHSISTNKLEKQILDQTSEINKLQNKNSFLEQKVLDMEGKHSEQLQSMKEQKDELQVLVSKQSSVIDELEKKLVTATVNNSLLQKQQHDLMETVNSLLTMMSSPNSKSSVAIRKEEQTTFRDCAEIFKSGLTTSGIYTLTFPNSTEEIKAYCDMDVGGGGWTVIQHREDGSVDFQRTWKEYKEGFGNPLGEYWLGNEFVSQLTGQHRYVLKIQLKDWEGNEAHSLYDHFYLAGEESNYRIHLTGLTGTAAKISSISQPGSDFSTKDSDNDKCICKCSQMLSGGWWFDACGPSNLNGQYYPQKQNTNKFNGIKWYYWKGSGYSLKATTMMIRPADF

B1: mAb 3.19.3 (antibody, V domains shown)
VH: QVQLVESGGGVVQPGRSLRLSCAASGFTFTNYGMHWGRQAPGKGLEWVAVISHDGNNKYYVDSVKGRFTISRDNSKNTLYLQMNSLRAEDTAVYYCAREGIDFWSGLNWFDPWGQGTLVTVSS
VL: EIVLTQSPGTLSLSPGERATLSCRASQSITGSYLAWYQQKPGQAPRLLICGASSWATGIPDRFSGSGSGTDFTLTISRLEPEDFAVYYCQQYSSSPITFGQGTRLEIKR
notes: Variable regions only; hybridoma-derived fully human IgG kappa; also called x3.19
B2: mAb 5.103.1 (antibody, V domains shown)
VH: QVQLVQSGAEVKKPGASVKVSCKASGYTFTGYYLYWVPQAPGQGLEWMGWISPNSGGTNYAQKFQGRVTMTRDTSISTAYMELSRLRSDDTAVYYCARDQVIAVAGPFDYWAQGTLVTVSS
VL: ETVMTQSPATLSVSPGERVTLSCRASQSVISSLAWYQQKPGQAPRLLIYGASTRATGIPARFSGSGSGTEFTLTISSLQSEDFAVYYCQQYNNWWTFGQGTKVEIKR
notes: Variable regions only; hybridoma-derived fully human IgG kappa; also called x5.103*
B3: mAb 5.86.1 (antibody, V domains shown)
VH: B2 VH with Y33H, L34M, P38R, M48L, S52N, A97V, V101G, V104A, A112C
VL: DIRMTQSPSSLSASVGDRVTITCRASQRISTYLNWYQQKPGKAPKFLIYAASSLQSGVPSRFSGSGSGTDFTLTISSLQPEDFATYYCQQSYTTPFTFGPGTKVDIKR
notes: Variable regions only; hybridoma-derived fully human IgG kappa; also called x5.86
B4: mAb 5.28.1 (antibody, V domains shown)
VH: EVQLVESGGIVVQPGGSLRLSCAASGFTFDDYTMHWVRQTPGKGLEWVSLISWDGGSTYYADSVKGRFTISRDNSKNSLYLQMNSLRTEDTALYYCAKDIDIAVAGTGFDHWGQGTLVTVSS
VL: EIVMTQSPATLSVSPGERATLSCRASQSVTSNLAWYQQKPGQAPRLLIYGALIRATGIPARFSGSGSGTEFTLTISSLQSEDFAVYYCQQYNNWPFTFGPGTKVDIKR
notes: Variable regions only; hybridoma-derived fully human IgG kappa; also called x5.28
B5: mAb 3.3.2 (antibody, V domains shown)
VH: EVQLVESGGGLVQPGGSLRLSCAVSGFTFSSYWMSWVRQAPGKGLEWVANIKQDGSEKYYVDSVKGRFTISRDNAKNSLYLQMNSLRAEDTAVYYCARDQGIAVAGPFDYWGQGTLVTVSS
VL: EIVMTQSPATLSVSPGERATLSCRASQTVSSDLAWYQQKPGQAPRLLIYGASIRATGIPARFSGSGSGTEFTLTISSLQSEDFAVYSCQQYYNWWTFGQGTKVEIKR
notes: Variable regions only; hybridoma-derived fully human IgG kappa; also called 3.3.1; x3.3
B6: mAb 3.31.2 (antibody, V domains shown)
VH: EVQLVESGGGLVQPGGSLRLSCAASGFTFSSYWMSWVRQAPGKGLEWVANIKQDGSDKYYVDSVKGRFTISRDNAKNSLYLRMNSLRAEDTAVFYCARDMGSGWFDYWGQGTLVTVSS
VL: B5 VL with I2V, T28S, S30G, D32N, I53T, S87C, Y92N, N93H
notes: Variable regions only; hybridoma-derived fully human IgG kappa; also called x3.31*
B7: mAb 5.88.3 (antibody, V domains shown)
VH: EVQMVESGGGLVQPGGSLRLSCAASGFTLRSYWMSWVRQAPGKGLEWVANIKEDGSEKYHVDSVKGRFTISRDNAENSLFLQMSSLRAEDTAVYYCARDMEASAGLFDYWGQGTLVTVSS
VL: B5 VL with T20I, T28S, V29I, D32N, I53T, S87Y, Y92N, N93Y
notes: Variable regions only; hybridoma-derived fully human IgG kappa; also called x5.88*
B8: mAb 5.101.1 (antibody, V domains shown)
VH: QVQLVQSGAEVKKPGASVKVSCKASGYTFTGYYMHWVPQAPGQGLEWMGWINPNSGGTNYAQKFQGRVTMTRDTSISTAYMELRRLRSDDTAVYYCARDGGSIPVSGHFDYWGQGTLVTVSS
VL: B5 VL with T28S, V29L, S30I, D32N, Y49F, I53T, S87Y, Q89H, Y92N
notes: Variable regions only; hybridoma-derived fully human IgG kappa; also called x5.101

How the values were obtained:
[1] = biological target: T1, recombinant human Angiopoietin-2; assay: competition ELISA, Ang-2 on coated Tie2/Fc
Method: 96-well Nunc Immplates™ were coated with 100 μl of recombinant human Tie2/Fc fusion protein (R&D Systems, Inc., Cat. No. 313-TI-100) at 4 μg/ml by incubating overnight at 4° C. The plates were washed four times using Phosphate Buffer Saline (PBS) with a Skan™ Washer 300 station (SKATRON). The wells were blocked by 100 μl of ABX-blocking buffer (0.5% BSA, 0.1% Tween, 0.01% Thimerosal in PBS) for 1 hour.
The plates were incubated at room temperature for two hours before the unbound molecules were washed off. […] After washing twice, the bound Streptavidin was detected by HRP substrate (R&D Systems, Cat. No. DY998). The plates were incubated for 30 minutes before 450 stop solution (100 μl/well, BioFX, Cat #BSTP-0100-01) was added to terminate the reaction. The light absorbance at 450 nm was determined by a Spectramax Plus reader.
Each concentration of the mAb was tested in duplicate. The concentration-response relationship was found by curve fitting using Graphpad Prism™ graphic software (non-linear, Sigmnoid curve). The maximal inhibition (efficacy) and IC₅₀ (potency) were calculated by the software.

[2] = biological target: T2, mouse Angiopoietin-2; assay: direct ELISA on plates coated with conditioned medium of HEK293F/mouse Ang-2 transfectants, detection with anti-human Fc-HRP
Method: The plates were incubated at 4° C. overnight, followed by washing four times using Phosphate Buffer Saline with a Skan Washer 300 station (SKATRON). The wells were blocked by 100 μl of ABX-block buffer (0.5% BSA, 0.1% Tween, 0.01% Thimerosal in PBS) for 1 hour. […] The mAbs and each of their dilutes were tested in duplicate. […] To set up the detecting chromagenic reaction, 100 μl of TMB substrate (TMB-microwell, BioFX, Cat. No. TMSK-1000-01) was added after washing the wells three times using PBS. The plates were incubated for 30 minutes before 650 stop solution (100 μl/well, BioFX, Cat. No. BSTP-0100-01) was added to terminate the reaction.

[3] = biological target: T2, mouse Angiopoietin-2; assay: competition ELISA: mAb titrated with mouse Ang-2 supernatant on plates coated with human Tie2/Fc; blocked partner: human Tie2/Fc
Method: (§1) For this purpose, an ELISA plate was coated with 4 μg/ml of hTie2/Fc (R&D Systems, Inc.) at 100 μl/well, and the wells were blocked as routine at 4° C. overnight.
(§2) Each concentration of the mAb was tested in triplicate. […] OD650 was determined 30 min after the HRP substrate was added.

[4] = biological target: T1, recombinant human Angiopoietin-2; assay: competition ELISA: mAb titrated with recombinant human Ang-2 on plates coated with human Tie2/Fc; blocked partner: human Tie2/Fc
Method: as §1, §2

Efficacy (ratio of bound Ang-2 with mAbs (30 µg/ml) versus without mAbs) [1] | further results | Binder
0.395 | EC50 (read off the curve) [2]: ~1 µg/mL; IC50 (read off the curve) [3]: ~2 µg/mL; IC50 (read off the curve) [4]: ~0.7 µg/mL | B1
0.232 | – | B2
0.384 | – | B3
0.389 | – | B4
0.388 | – | B5
0.375 | – | B6
0.403 | – | B7
0.364 | – | B8
